The source of these data is patent US20140213531A1 (POLYPHOR, published 2014).

First the molecules themselves.
T1: CathepsinG, from human neutrophils (human, UniProt P08311 21-244)
T1 construct: purified natural enzyme, bought
T1 sequence (looked up): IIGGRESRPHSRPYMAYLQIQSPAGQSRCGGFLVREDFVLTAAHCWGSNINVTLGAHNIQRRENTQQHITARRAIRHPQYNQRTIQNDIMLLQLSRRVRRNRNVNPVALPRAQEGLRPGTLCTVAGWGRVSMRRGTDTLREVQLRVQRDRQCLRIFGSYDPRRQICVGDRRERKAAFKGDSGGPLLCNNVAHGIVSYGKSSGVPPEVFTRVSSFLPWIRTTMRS

T2: Chymase, from human skin (human, UniProt P23946 22-247)
T2 construct: purified natural enzyme, bought
T2 sequence (looked up): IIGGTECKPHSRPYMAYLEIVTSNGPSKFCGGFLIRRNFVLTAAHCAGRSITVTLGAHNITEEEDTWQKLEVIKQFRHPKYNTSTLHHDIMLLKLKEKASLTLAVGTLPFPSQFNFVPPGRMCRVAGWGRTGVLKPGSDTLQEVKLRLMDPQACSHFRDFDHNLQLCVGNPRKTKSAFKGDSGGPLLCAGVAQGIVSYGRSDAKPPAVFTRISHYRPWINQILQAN

B1: Example 148 (peptide)
peptide: XCTASXPPQCQ
HELM: PEPTIDE1{[CCCCCCCC[C@H](N[*:1])C(=O)[*:2]].C.T.A.S.[CCCCCCCC[C@H](N[*:1])C(=O)[*:2]].P.P.Q.C.Q.[dP].P}$PEPTIDE1,PEPTIDE1,2:R3-10:R3|PEPTIDE1,PEPTIDE1,1:R1-13:R2$$$V2.0
SMILES: CCCCCCCC[C@@H]1NC(=O)[C@@H]2CCCN2C(=O)[C@H]2CCCN2C(=O)[C@H](CCC(N)=O)NC(=O)[C@@H]2CSSC[C@H](NC1=O)C(=O)N[C@@H]([C@@H](C)O)C(=O)N[C@@H](C)C(=O)N[C@@H](CO)C(=O)N[C@@H](CCCCCCCC)C(=O)N1CCC[C@H]1C(=O)N1CCC[C@H]1C(=O)N[C@@H](CCC(N)=O)C(=O)N2
notes: also called Ex. 148
B2: Example 158 (peptide)
peptide: XCTASXPPQCQ
HELM: PEPTIDE1{[O=C([C@H](CCc1ccccc1)N[*:1])[*:2]].C.T.A.S.[Cha].P.P.Q.C.Q.[dP].P}$PEPTIDE1,PEPTIDE1,2:R3-10:R3|PEPTIDE1,PEPTIDE1,1:R1-13:R2$$$V2.0
SMILES: C[C@@H]1NC(=O)[C@H]([C@@H](C)O)NC(=O)[C@@H]2CSSC[C@H](NC(=O)[C@H](CCC(N)=O)NC(=O)[C@@H]3CCCN3C(=O)[C@@H]3CCCN3C(=O)[C@H](CC3CCCCC3)NC(=O)[C@H](CO)NC1=O)C(=O)N[C@@H](CCC(N)=O)C(=O)N1CCC[C@@H]1C(=O)N1CCC[C@H]1C(=O)N[C@@H](CCc1ccccc1)C(=O)N2
B3: Example 177 (peptide)
peptide: XCTASIPPQCY
HELM: PEPTIDE1{[CCCCCCCC[C@H](N[*:1])C(=O)[*:2]].C.T.A.S.I.P.P.Q.C.Y.[dP].Q}$PEPTIDE1,PEPTIDE1,2:R3-10:R3|PEPTIDE1,PEPTIDE1,1:R1-13:R2$$$V2.0
SMILES: CCCCCCCC[C@@H]1NC(=O)[C@H](CCC(N)=O)NC(=O)[C@H]2CCCN2C(=O)[C@H](Cc2ccc(O)cc2)NC(=O)[C@@H]2CSSC[C@H](NC1=O)C(=O)N[C@@H]([C@@H](C)O)C(=O)N[C@@H](C)C(=O)N[C@@H](CO)C(=O)N[C@@H]([C@@H](C)CC)C(=O)N1CCC[C@H]1C(=O)N1CCC[C@H]1C(=O)N[C@@H](CCC(N)=O)C(=O)N2
notes: also called Ex. 177

One may read the % inhibition as the percentage by which the read-out fell short of the control.

Bridges are numbered along the chain shown (N, C = ends). [ ]: non-standard residue; d: D form. Gly(octyl) = CCCCCCCC[C@H](N)C(=O)O; Pro(4NHCOPhe) = not defined here; Cha = N[C@@H](CC1CCCCC1)C(=O)O

T5 sequence (Q15661 31-275 limits assumed): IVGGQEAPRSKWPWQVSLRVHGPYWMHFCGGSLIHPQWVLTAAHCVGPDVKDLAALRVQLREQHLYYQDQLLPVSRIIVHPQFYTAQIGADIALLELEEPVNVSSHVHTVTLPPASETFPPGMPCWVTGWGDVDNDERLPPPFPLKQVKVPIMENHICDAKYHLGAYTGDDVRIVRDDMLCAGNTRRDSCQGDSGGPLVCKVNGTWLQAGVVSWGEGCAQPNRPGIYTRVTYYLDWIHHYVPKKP

The first experiment deals with T1, CathepsinG, from human neutrophils. Put plainly: enzyme inhibition, pNA substrate.
As to B1, the “% inhibition at 100 µM” value turned out to be 52%.

For the molecule B2, the “% inhibition at 100 µM” value stood at 55%.

Turning to B3, the “% inhibition at 100 µM” value worked out at 54%.

Take cyclo([Gly(octyl)]CTAS[Cha]P[Pro(4NHCOPhe)]QCQ[dP]P) (disulfide 2-10; not fully specified; reading uncertain, also called Ex. 160) [Example 160]: the “% inhibition at 100 µM” value was found to be 55%.

The target in a further experiment is T3, Chymotrypsin, from human pancreas (human, UniProt P17538 19-263).
T3 construct: purified natural enzyme, bought
T3 sequence (P17538 19-263): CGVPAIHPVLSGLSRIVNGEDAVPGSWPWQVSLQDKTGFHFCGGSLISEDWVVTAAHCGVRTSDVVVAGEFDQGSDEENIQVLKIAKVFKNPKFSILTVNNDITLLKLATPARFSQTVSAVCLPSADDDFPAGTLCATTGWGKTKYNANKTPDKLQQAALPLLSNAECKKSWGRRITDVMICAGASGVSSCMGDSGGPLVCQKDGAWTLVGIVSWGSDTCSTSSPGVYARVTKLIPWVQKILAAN
Put plainly: enzyme inhibition, pNA substrate.
For the molecule B1, the “% inhibition at 100 µM” value was 91%.

Consider B2, for which the “% inhibition at 100 µM” value came out at 93%.

Regarding B3, the “% inhibition at 100 µM” value stood at 86%.

Consider cyclo([Gly(octyl)]CTAS[Cha]P[Pro(4NHCOPhe)]QCQ[dP]P) (disulfide 2-10; not fully specified; reading uncertain, also called Ex. 160) [Example 160], for which the “% inhibition at 100 µM” value is 94%.

The target of a further experiment is T2, Chymase, from human skin. As to the kind of experiment: enzyme inhibition, pNA substrate.
On to B2, for which the “% inhibition at 100 µM” value was found to be 0%.

For the next experiment, the target named is Thrombin, from Human Plasma, high activity (human, UniProt P00734 328-622). Put plainly: enzyme inhibition, pNA substrate.
In the case of B1, the “% inhibition at 100 µM” value was found to be 32%.

As for B3, the “% inhibition at 100 µM” value was determined as 17%.

Consider cyclo([Gly(octyl)]CTAS[Cha]P[Pro(4NHCOPhe)]QCQ[dP]P) (disulfide 2-10; not fully specified; reading uncertain, also called Ex. 160) [Example 160], for which the “% inhibition at 100 µM” value was 23%.

A further experiment deals with T4, Urokinase from human urine (human, UniProt P00749 21-431, limits assumed).
T4 construct: purified natural enzyme, bought
Put plainly: enzyme inhibition, pNA substrate.
With B1, the “% inhibition at 100 µM” value came to 12%.

For B2, the “% inhibition at 100 µM” value worked out at 10%.

For the molecule B3, the “% inhibition at 100 µM” value came out at 12%.

cyclo([Gly(octyl)]CTAS[Cha]P[Pro(4NHCOPhe)]QCQ[dP]P) (disulfide 2-10; not fully specified; reading uncertain, also called Ex. 160) [Example 160]: the “% inhibition at 100 µM” value worked out at 14%.

A further experiment has as its target T5, Tryptase, from human lung (human, UniProt Q15661 31-275, limits assumed).
T5 construct: purified natural enzyme, bought
Put plainly: enzyme inhibition, pNA substrate.
As to B1, the “% inhibition at 100 µM” value turned out to be 30%.

In the case of B2, the “% inhibition at 100 µM” value stood at 13%.

Turning to B3, the “% inhibition at 100 µM” value worked out at 15%.

On to cyclo([Gly(octyl)]CTAS[Cha]P[Pro(4NHCOPhe)]QCQ[dP]P) (disulfide 2-10; not fully specified; reading uncertain, also called Ex. 160) [Example 160], for which the “% inhibition at 100 µM” value is 30%.
